The assay deals with His6-SUMO tagged H3.3 (human, UniProt P84243 1-136). The experiment in a line: native gel or EMSA. A general note: Mobility shift assays separate free from complexed probe on a gel.

B1: human histone H3.Y (natural protein)
chain: not shown
In the case of B1, the binding result is “binds”.
